In US6713269B2, “Methods for identifying potential therapeutic agents for treatment of osteoporosis using mitogenic indices” (co.don Aktiengesellschaft, priority 1995, dated 2004):

System: human osteoblast precursor cells
Assay: Cell proliferation rate under the influence of growth factors, using bromodeoxyuridine incorporation (BrdU incorporation)
Type: cell-based
Details: for Absorbance mean value: 54 h incubation + 18 h BrdU labelling, OD at 405 nm
Experimental: 3,000 osteoblastic cells from fractions t1 to 2 up to the second passage, recovered from osteoporotic patients (OP cells), per well of a 96-well microwell plate were incubated in the presence of 10% FCS and 10% inactivated human control serum in a cell culture medium (α-MEM and HAM-S F12 medium […]) for 48 h, 120 h and 192 h. In parallel, 3,000 osteoblastic cells from non-osteoporotic patients were incubated under the same conditions. The number of intact cells was determined by means of trypan blue staining and counting in a counting chamber. 4. Determination of the cell proliferation rate under the influence of the three growth factors 1, 2 and 3 using bromodeoxyuridine incorporation (BrdU incorporation) Growth factor 1 =TGF-β2
Cells from fraction 1 and/or 2 of each punched-out bone piece up to the 2nd passage were used in the proliferation test.
3 ×10^3 cells from the first and/or second passage per well of a 96-well plate and 200 μl of medium were used.
The cells were cultivated for three days under the conditions previously described and subsequently cultivated further for one day in medium with no serum until subconfluence was reached.
Thereafter, the three growth factors 1, 2 and 3 were added to the cells at four different final concentrations (100, 10, 1, and 0.1 ng/ml medium).
Cells in a medium containing 10% FKS and in a medium containing 5% Ultroser served as controls.
Triplets were set up for all concentrations and controls.
Six wells including cells, to which no bromodeoxyuridine had been added during the proliferation test served as blank controls.
After 54 hours of incubation with the growth factors, the proliferation test (5-Bromo-2′-deoxyuridine Labeling and Detection Kit III by Boehringer Mannheim) was initiated by adding 20 μl of labelling solution diluted 1:90 in 1% BSA medium and subsequent incubation for 18 hours.
The proliferation test was conducted according to the manufacturer's instructions.
Evaluation of the proliferation test was effected by measuring the optical density (OD) at 405 nm in an ELISA reader. After 60 minutes of color development, the absorbance was measured 12 times at intervals of 5 minutes.

B1: TGF-β2: protein growth factor 1 tested for mitogenic effect on osteoblast cells (protein, UniProt P61812 303-414, looked up)
Transforming growth factor …: ALDAAYCFRNVQDNCCLRPLYIDFKRDLGWKWIHEPKGYNANFCAGACPYLWSSDTQHSRVLSLYNTINPEASASPCCVSQDLEPLTILYYIGKTPKIEQLSNMIVKSCKCS
Absorbance mean value (0.1 ng/ml medium): 0.150
Absorbance mean value (1 ng/ml medium): 0.170
Absorbance mean value (10 ng/ml medium): 0.190
Absorbance mean value (100 ng/ml medium): 0.190
mitogenic effect (stimulative capability of cell proliferation, dose-effect curves) (osteoblast cells from osteoporosis patients, FIG. 5): significant dose-dependent mitogenic effect
